This note sets out measurements from paper PMC8643695 (Nucleic Acids Research, 2021).

Data set [1] relates to SmCstR (Streptococcus mitis SVGS_061). In words: fluorescence anisotropy. As to conditions: 10 nM dsDNA, 25 mM Tris-HCl, 200 mM NaCl, 2 mM EDTA, 2 mM TCEP, pH 8.0, 25 C.
In data set [2] the target is C9A SpCstR C9A (Streptococcus pneumoniae D39) (UniProt A0A0H2ZNA4). Put plainly: fluorescence anisotropy. The conditions noted are these: 10 nM dsDNA, 25 mM Tris-HCl, 200 mM NaCl, 2 mM EDTA, 2 mM TCEP, pH 8.0, 25 C. (In fluorescence polarisation assays a small probe gives low polarisation when free and higher when bound to something large.)
A further data set deals with C9R SpCstR (Streptococcus pneumoniae D39, UniProt A0A0H2ZNA4 1-85, C9R). In words: fluorescence anisotropy.
Data set [3] deals with the molecule itself. Put plainly: crystal structure.
Data set [4] concerns the molecule itself. In words: crystal structure. The source holds these as a separate data set.
Data set [5] concerns the molecule itself. In words: crystal structure. This is another data set of the same source.

Like-named read-outs stand apart in the source and are kept apart here.

In data set [1], “TACCTCCAAATATACCCTTATGGGGTATATTAAA (double strand) [S. mitis cst operator]” registered a Ka of 1.4e+08 M⁻¹.
In data set [2], Sp adcA (AdcR) operator gave a Ka of 490000 M⁻¹.

B1: S. mitis cst operator (dsDNA)
DNA 1: TACCTCCAAATATACCCTTATGGGGTATATTAAA
DNA 2: TTTAATATACCCCATAAGGGTATATTTGGAGGTA
In the case of B1, in the data set with C9R SpCstR, the binding result is “binds”.

B2: selenomethionine (SeMet)-substituted C9A SpCstR (natural protein, Streptococcus pneumoniae D39)
chain: TNSKYITALKRSEGQLRGIQKMIEGDRDCADIVTQLTAVRSSVERVIEMIITENLTECINQPLDDSEAQKERLEKAIRYLIKRK
modifications: selenomethionine in place of methionine
Regarding B2, the “stoichiometry N” value in the data set “crystal structure [3]” was 4.

B3: C9A/N55A S. pneumoniae CstR (locus tag SPD_0073) (natural protein, Streptococcus pneumoniae D39)
chain: TNSKYITALKRSEGQLRGIQKMIEGDRDCADIVTQLTAVRSSVERVIEMIITEALTECINQPLDDSEAQKERLEKAIRYLIKRK
B3: in “crystal structure [4]”, the “stoichiometry N” value turned out to be 4.

B4: C9A S. pneumoniae CstR (locus tag SPD_0073) (natural protein, Streptococcus pneumoniae D39)
chain: TNSKYITALKRSEGQLRGIQKMIEGDRDCADIVTQLTAVRSSVERVIEMIITENLTECINQPLDDSEAQKERLEKAIRYLIKRK
Consider B4, for which the “stoichiometry N” value in the data set “crystal structure [5]” was 6.

Usually stoichiometry N stands for a count of units in the complex or per binding partner.
